Source: the nanobody polyreactivity screen of Harvey et al. (2022)

Test: yeast display, Sf9 membrane polyspecificity reagent, FACS + sequencing; frameworks hold sequencing errors
Outline: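 Using colony PCR, genes from sorted yeast display clones were amplified, then sequenced on MiSeq at 2 × 250 and filtered by CDR length. The clones had been stained with 10% biotinylated, detergent-solubilized Sf9 membrane reagent for 1 hour at 4 °C and sorted by FACS into low and high (top ~1%) gates on anti-HA and streptavidin fluorescence. Polyreactivity labels come from the gate of origin.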

Question: With “QVQLQESGGGLVQAGGSLRLSCAASGSISHYIFMCWYRQSPGKEREFVAGIGYGGTTNYADSVKGRFTISRDNAKNTVYLQMISLTPEDTAMYYCAAREATEFYLYYWGQGTQVTVSS” as the sequence, how does the “polyreactivity (PSR sort gate)” value read?
Answer: low polyreactivity

Question: For “QVQLVESGGGLVQAGGSLRLSCAASGSTFWSYAMGWYRQAPGKERELVAVITGSDGRTFYADSVKGRFTISRDNAKNTVYFQINSLKPEDTAVYYCAADAVFRATRDDRSTSEDDYWGQGTQVTVSS”, which “polyreactivity (PSR sort gate)” value is on record?
Answer: low polyreactivity

Question: Which “polyreactivity (PSR sort gate)” value does the source give for “QVQLVESGGGLVQAGGSLRLSCAASGIIFGGNVMGWYRQAPGKERELVAAISGTGDNTYYADSVKGRFTISRDNAKNTVYLQMNSLKPEDTAVYYCNTVYYGWPRRYGYWGQGTQVTVSS” here?
Answer: high polyreactivity

Question: Which “polyreactivity (PSR sort gate)” value does the source give for “QVQLVESGGGLVQAGGSLRISCAASGFIFRYYTMGWYRQAPGKERELVATITSGGSTYYADSVKGRFTISRDNAKNTVYLQMNSLKPEDTAVYYCAKVRDVLWRFNYWGQGTEVTVSS” here?
Answer: high polyreactivity

Question: For “PVQLVESGGVLVQAGGSLRLSCAASGITFWDKAMGWYRQPPGKERELVAAITSGNTDYADSVKGRFTISRDNAKNSVYLPMTSLIPEDTAVYYCGAELLVGGGVTVDYWGQGTQVTVSS”, which “polyreactivity (PSR sort gate)” value is on record?
Answer: low polyreactivity

Question: Which “polyreactivity (PSR sort gate)” value does the source give for “QVQLVESGGGLVQAGGSLRLSCAASGSIFSYYAMGWYRQAPGKERELVAAITVRGGSTYYADSVKGRFTISRDNAKNTVYFQMNSLKPEDTAVYYCAADWLDESFSYGPYYYWGQGTQVTVSS” here?
Answer: low polyreactivity

Question: Which “polyreactivity (PSR sort gate)” value does the source give for “QVQLVESGGGLVQAGGSLRLSCAASGSIFYYNALGWYRHAPGKERELVASISNGGSTDYADSVKGRFTISRDNAKNTVYLQMNSVKPEDTAVYYCNAKQSYRSDYDYWGQGTQVTVSS” here?
Answer: low polyreactivity

Question: With “QVQLVESGGGLVQAGGSRRLSCAASGGTFYYYAMGWYRQAPGKERELVAAIRGSGGSTYYADSVKGRFPISRDNAKNTVYLQMNSLKPVDTAVYYCATRGGYPKGYGYLAFNYWGQGTQVTVSS” as the sequence, how does the “polyreactivity (PSR sort gate)” value read?
Answer: high polyreactivity

Question: For “QVHLVESGGGLVQAGGSLLLSCAASGFTFTAYAMGWYRQAPGKERELVAAISYRGGRTNYAYSVKGRFTISRDNAKNTVYLQMNSLKPEDTAVYYCASRQGISTREMDYWGQGTQVTVSS”, which “polyreactivity (PSR sort gate)” value is on record?
Answer: high polyreactivity

Question: With “QVQLVESGGGLVQAGGSLRLSCAASGSIFLYNAMGWYRQAPGKERELVATITYIGGRTYYADSVKGRFTISRDNAKNTVYLQMNSLKPEDSAVYYCAAEYYVISSPSFYEYDYWGQGTQVTVSS” as the sequence, how does the “polyreactivity (PSR sort gate)” value read?
Answer: low polyreactivity

Question: Which “polyreactivity (PSR sort gate)” value does the source give for “QVQLVESGGGLVQAGGSLRLSCSASGSIFDRYTIGWYRQAPWKERDLVAAITFGGGSTYYADSVKVRFTISRDNAKNTDYLQRNSLKPADTAVYYCAKQRHGKLGHILGYNYWGQGTQVTVSS” here?
Answer: low polyreactivity

Question: With “QVQLVESGGGLVQAGGSLRLSCAASGGTFGSNAMGWYRPAPGKERELVAAISTTGGTTYYADSVKGRFTISRDNAKNTVYLQMNSLKPEDPAVYYCAKDGYVYGDWYTYAYDYWGQGTQVTVSS” as the sequence, how does the “polyreactivity (PSR sort gate)” value read?
Answer: low polyreactivity

Question: For “QVQLVESGGGLVQAGGSLRLSCAASGSTFFTNVMGWYRQAPGKERELVADISSGGDTNYADSVKGRFTISRDNAKNTVYLQMNSLKPEDTAVYYCAVDPNVDYELHGFFFSFDYWGQGTQVTVSS”, which “polyreactivity (PSR sort gate)” value is on record?
Answer: low polyreactivity

Question: Which “polyreactivity (PSR sort gate)” value does the source give for “QVQLVESGGGLVQAGGSLRLSCAGSGSTFLYYAMGWYRQAPGKERELVAVITYSDGGTYYADSVKGRFTISRDNAKNTVYLEMNSLKPEDTAVYYCAKDYRAYAGHYTWTWHEYGYWGQGTQVTVSS” here?
Answer: low polyreactivity

Question: For “QVQLVESGAGLVQAGGSLRISCAASGRTFGLNDMAWYRPAPGKERELVAAITWSDDDTYYADSVKGRFTISRDNAKNTVYLQMNSLKPEDTAVYYCAKSRYDYTKTECGYWGQGTEVTVSS”, which “polyreactivity (PSR sort gate)” value is on record?
Answer: low polyreactivity

Question: Which “polyreactivity (PSR sort gate)” value does the source give for “QVQLVESGGGLVQAGGSLRLTCDASGITYYGYAIGWSRQAPGKEREWVAGINNGGSTTYADSVKGRFTISRDNAKITVYLQMNSVKPEDTAVYYCAADPVYLNKLLYYVGQAYYYWGQGTQVTVSS” here?
Answer: high polyreactivity

Question: For “QVQLVESGGGLVQAGGSLRLSCAASGSIIRTYAMGWYRQAPGKERQLVATITFGGVSTYNADSVKGRFTISRDNAKNTVYLQMNSLKPEDSAVYYCAADVYTRFWRVYRFDYWGQGTQVTVSS”, which “polyreactivity (PSR sort gate)” value is on record?
Answer: low polyreactivity

Question: With “QVQLGESGGGLVQAGGSLRLSCAASGITFNGYAMGWSRQAPGKERQLVASAIRGTSGSTYYADSVKGRFTISRDNAKNTDYLQMNSLKPEDTTVYYCNADIVIQGVIYYYRNFEYWGQGTQVTVSS” as the sequence, how does the “polyreactivity (PSR sort gate)” value read?
Answer: low polyreactivity

Question: With “QVQLVESGGGLVQAGGSLRLSCAATGIIFTGKSMGWYRQAPGTERELVASITSGDTTNYADSVKGRFTISRDNAKNTVYLQMNSLKPEDTAVYSCAKELQVRQGGDYWGQGTQVTVSS” as the sequence, how does the “polyreactivity (PSR sort gate)” value read?
Answer: low polyreactivity

Question: With “QVQLVESGGGLVQAGGSLRLSCAASGFTFWLYSMGWDRQAPGKEREFVAAISTSGGSTYADSVKGRFTISRDNAKNTVYLLMNSLKPEDTAVYYCAGVYTYPLGYYHYTYDYWGQGTQVTVSS” as the sequence, how does the “polyreactivity (PSR sort gate)” value read?
Answer: low polyreactivity

Question: Which “polyreactivity (PSR sort gate)” value does the source give for “QVQLVESGGGLVQAGGSLRLSCAASGSTFKYYSIGWYRQAPGKERELVASITGRTVGTYYADSVKGRFTISRDIAKNTVYLQMNSLKPEDTAVFYCATDLYWDYPDKGYTVSWWYGYWGQGTQVTVSS” here?
Answer: low polyreactivity

Question: With “QVQLVESGGGLVQAGGSLSLSCAASGSSFGGYTMGWYRQAPGKERELVAAISRRGGNTYYADSVKGRFTISRDNAKNTVYLQMNSLNPEETAVYYCAVRWPSARIPVKLDYWGQGTQVTVSS” as the sequence, how does the “polyreactivity (PSR sort gate)” value read?
Answer: high polyreactivity

Question: With “QVQLVESGGGLVQAGGSLRLSCAASGFTFDINAMGWSRQAPGKERELVAAISRSGGRTYYADSVKGRFTISRDNAKNTVYLQMNSLKPDDTAVYYCAARYPERRYNTFDYWGQGTQVTVSS” as the sequence, how does the “polyreactivity (PSR sort gate)” value read?
Answer: high polyreactivity

Question: With “QVQLVESGGGLVQAGGSLRLSCAASGRTFGGYAMGWSRQAPGKERELVAAISWSGGRTYYADSVKGRFTISRDNAKNTVYLQMNSLKPEDTAVYYCAATSGRAFKYDYWGQGTQVTVSS” as the sequence, how does the “polyreactivity (PSR sort gate)” value read?
Answer: high polyreactivity

Question: With “QVQLVESGGGLVQAGGSLRLSCAASGSTFRLYAMGWYRQAPGKERELVAAISSRGGTTYYADSVKGRFTISRDNAKNTVYLQMNSLKPEDTAVYYCAAPRASQYGDDYWGHGTQVTVSS” as the sequence, how does the “polyreactivity (PSR sort gate)” value read?
Answer: high polyreactivity

Question: For “QVQLVESGGGLVQAGGSLRLSCAASGRIFRHNTLGWYRQAPGKEREFVAAISRNGGITYYADSVKGRFTISRDNAKNTVYLQMNSLKPEDTAVYYCNAYTYRQNDYWGQGTQVTVSS”, which “polyreactivity (PSR sort gate)” value is on record?
Answer: high polyreactivity

Question: Which “polyreactivity (PSR sort gate)” value does the source give for “QVQLEESGGGLVQAGGSLRLSCAASGNIFWGNAMGWYRQAPGKEMELVAAITSIDSSTYYADSVKGRFTISRDNAKNTVYLQMNSLKPEDTAVYYCAADGDWYGYIWQSDDGYDSWGQGTQVTVSS” here?
Answer: low polyreactivity

Question: With “HVQLVESGGGLVQAGGSLRLSCAASGSIFNSNGMGWYRQATGKERELVAAITGGGSTNYADSVKGRFTISRDNAKNTVYLQMNSLKPEDTAVYYCAARPLRTDWAYYYWGQGTQVTVSS” as the sequence, how does the “polyreactivity (PSR sort gate)” value read?
Answer: low polyreactivity

Question: With “QVQLVESGGGLVQAGGSLRLSCAASGSPFRGYAMGWYRLAPGKEREFVAAISRRGGTTYYADSVKARFTISRDNAKNTGYLQMNSLKPEDTAVYYCNKVYYQHYLPVDYWGQGTQVTVSS” as the sequence, how does the “polyreactivity (PSR sort gate)” value read?
Answer: high polyreactivity

Question: With “QVQLVESGGGLVQAGGSLRLSCAASGNTVYYYGMGWYRQAPGKERDLVAAINYSGGSTYYADSVKGRNTISRDNAKNTVYLPMNSKKPEVTAVYYCNADYVPAYRDLASLADGYYWGQGTQVTVSS” as the sequence, how does the “polyreactivity (PSR sort gate)” value read?
Answer: low polyreactivity
